Measurements published in patent US20260226191A1 (SHANDONG SIMCERE BIOPHARMACEUTICAL, published 2026).

Experiments:
[1] = molecular target: T1, human MUC17 on endogenous tumor cells (NUGC4, SNU16, ASPC1) (human); test: FACS on SNU16 cells (endogenous human MUC17), MFI
T1 construct: whole, on cells; also called MUC17-positive tumor cells

[2] = molecular target: T2, human MUC17 fragment on FlpinCHO-huMUC17-D1 cells (human); test: FACS on FlpinCHO-huMUC17-D1 cells, MFI
T2 construct: On cells; also called cells overexpressing human MUC17

[3] = molecular target: T3, human cell surface CD3 (Jurkat cells, human PBMCs) (human, UniProt P07766 23-207); test: FACS on naive human PBMCs (CD3), MFI
T3 construct: whole, on cells; CD3 is a multi-chain complex on the cell
T3 sequence (P07766 23-207): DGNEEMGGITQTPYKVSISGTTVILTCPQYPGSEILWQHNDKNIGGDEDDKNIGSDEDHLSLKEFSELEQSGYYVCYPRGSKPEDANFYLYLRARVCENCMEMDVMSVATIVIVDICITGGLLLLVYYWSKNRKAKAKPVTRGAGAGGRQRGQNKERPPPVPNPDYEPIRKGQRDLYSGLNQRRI

[4] = molecular target: T1, human MUC17 on endogenous tumor cells …; test: cell-based or functional assay
[5] = molecular target: T4, Human MUC17 ECD4131-his (His-tagged human MUC17 protein extracellular region fusion protein) (human, UniProt Q685J3 4131-4393); test: ELISA, human MUC17-his coated on the plate, OD450
T4 construct: also called human MUC17-his protein; Human MUC17-ECD(4131-4393)-His protein

[6] = molecular target: T1, human MUC17 on endogenous tumor cells …; test: FACS on NUGC4 cells (endogenous human MUC17), MFI
[7] = molecular target: T1, human MUC17 on endogenous tumor cells …; test: FACS on AspC-1 cells (endogenous human MUC17), MFI
[8] = molecular target: T4, Human MUC17 ECD4131-his (His-tagged …); test: SPR (Biacore 8K), antibody captured on Protein A, antigen injected, 25 C, 1:1 model
[9] = molecular target: T5, Cyno MUC17 ECD3577-mFc (mFc-tagged cynomolgus monkey MUC17 protein extracellular region fusion protein) (cynomolgus monkey); test: as above
T5 construct: also called monkey MUC17-mFc protein; Monkey MUC17-ECD3577-mFc protein
T5 chain: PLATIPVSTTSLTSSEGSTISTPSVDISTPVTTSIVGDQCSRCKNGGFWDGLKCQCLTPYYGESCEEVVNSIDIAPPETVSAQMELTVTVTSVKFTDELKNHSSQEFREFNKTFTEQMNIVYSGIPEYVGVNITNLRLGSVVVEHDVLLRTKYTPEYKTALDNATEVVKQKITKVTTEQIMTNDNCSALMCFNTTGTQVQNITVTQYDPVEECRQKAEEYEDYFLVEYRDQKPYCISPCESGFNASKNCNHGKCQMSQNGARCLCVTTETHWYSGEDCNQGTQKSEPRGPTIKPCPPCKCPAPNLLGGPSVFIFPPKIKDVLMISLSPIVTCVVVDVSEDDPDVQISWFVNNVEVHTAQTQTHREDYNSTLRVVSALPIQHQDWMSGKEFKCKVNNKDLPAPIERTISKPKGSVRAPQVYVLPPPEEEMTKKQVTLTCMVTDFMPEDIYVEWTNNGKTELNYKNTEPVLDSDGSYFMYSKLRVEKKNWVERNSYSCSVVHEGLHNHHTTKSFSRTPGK

[10] = molecular target: T6, monkey MUC17 on FlpinCHO-cynoMUC17-D1 cells (monkey); test: FACS on FlpinCHO-cynoMUC17-D1 cells, MFI
T6 construct: On cells; also called recombinant cells overexpressing monkey MUC17

[11] = molecular target: T5, Cyno MUC17 ECD3577-mFc (mFc-tagged …); test: ELISA, cynomolgus MUC17-mFc coated on the plate, OD450

B1: Bis 58 (bispecific antibody, human IgG1, kappa)
heavy: EVQLVESGGGVVQPGRSLRLSCAASGFTFTDYYMSWVRQAPGKGLEWVAMSRNKAKGHTIEYSSSVKGRFTISRDNSKNTLYLQMNSLRAEDTAVYYCARDTYESYDGYFDVWGQGTTVTVSSASTKGPSVFPLAPSSKSTSGGTAALGCLVKDYFPEPVTVSWNSGALTSGVHTFPAVLQSSGLYSLSSVVTVPSSSLGTQTYICNVNHKPSNTKVDKKVEPKSCDKTHTCPPCPAPEAAGAPSVFLFPPKPKDTLMISRTPEVTCVVVDVSHEDPEVKFNWYVDGVEVHNAKTKPREEQYNSTYRVVSVLTVLHQDWLNGKEYKCKVSNKALPAPIEKTISKAKGQPREPQVYTLPPSREEMTKNQVSLWCLVKGFYPSDIAVEWESNGQPENNYKTTPPVLDSDGSFFLYSKLTVDKSRWQQGNVFSCSVMHEALHNHYTQKSLSLSPG
light: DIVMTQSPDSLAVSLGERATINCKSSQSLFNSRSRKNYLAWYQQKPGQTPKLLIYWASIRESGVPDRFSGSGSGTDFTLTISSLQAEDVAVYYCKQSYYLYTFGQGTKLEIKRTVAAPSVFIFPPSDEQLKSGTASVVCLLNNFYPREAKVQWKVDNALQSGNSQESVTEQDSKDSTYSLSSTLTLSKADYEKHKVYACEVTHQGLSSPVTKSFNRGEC
chain: EVQLVESGGGLVQPGGSLRLSCAASGFPSSRGTMAWFRQAPGKEREGVAFINSDGRTSYAESVKGRFTISRDNAKNSLYLQMNSLRAEDTAVYYCAASLLYLMTVNAAAYPYWGQGTMVTVSSGGGDKTHTCPPCPAPEAAGAPSVFLFPPKPKDTLMISRTPEVTCVVVDVSHEDPEVKFNWYVDGVEVHNAKTKPREEQYNSTYRVVSVLTVLHQDWLNGKEYKCKVSNKALPAPIEKTISKAKGQPREPQVYTLPPSREEMTKNQVSLSCAVKGFYPSDIAVEWESNGQPENNYKTTPPVLDSDGSFFLVSKLTVDKSRWQQGNVFSCSVMHEALHNHYTQKSLSLSPG
notes: Three-chain asymmetric MUC17xCD3 bispecific
In the case of B1, the “EC50 (read off the curve)” value [1] is reported as ~0.2 nM, the “EC50 (read off the curve)” value [2] is reported as ~1 nM and the “EC50 (read off the curve)” value [3] is reported as ~50 nM. The “PBMC-mediated in vitro tumor cell killing EC50, ASPC-1” value [4] was 0.0194 nM, the “PBMC-mediated in vitro tumor cell killing EC50, NUGC4” value [4] was 0.0271 nM and the “EC50 (read off the curve)” value [5] was ~0.05 nM. The “EC50 (read off the curve)” value [6] was ~0.5 nM, the “EC50 (read off the curve)” value [7] was ~0.2 nM and the Kd [8] was 0.378 nM. The koff [8] was 0.000138 s⁻¹, the kon [8] was 364000 M⁻¹ s⁻¹ and the Kd [9] was 7.11 nM. For the same binder, the koff [9] was 0.00031 s⁻¹, the kon [9] was 43600 M⁻¹ s⁻¹ and the “EC50 (read off the curve)” value [10] was ~8 nM. For the same binder, the “EC50 (read off the curve)” value [11] was ~0.07 nM.
